Measurements from article PMC4036204, “The DDN Catalytic Motif Is Required for Metnase Functions in Non-homologous End Joining (NHEJ) Repair and Replication Restart*”.
Substitutions are numbered along the chain they refer to.

Tests used:
Assay in all cases: fluorescence polarization; FP: 50 mM HEPES pH 7.0, 150 mM NaCl, 10 nM probe, temperature not stated; EMSA: 50 mM HEPES-KOH pH 7.8, 50 mM NaCl, 0.2 ug poly(dI:dC), 0.2 ug/ul BSA, room temperature 15 min
[1] = target: T1, Metnase transposase domain WT (UniProt Q53H47 342-684); settings: protein: recombinant, tags: His6-SUMO cleaved by Ulp1
T1 sequence: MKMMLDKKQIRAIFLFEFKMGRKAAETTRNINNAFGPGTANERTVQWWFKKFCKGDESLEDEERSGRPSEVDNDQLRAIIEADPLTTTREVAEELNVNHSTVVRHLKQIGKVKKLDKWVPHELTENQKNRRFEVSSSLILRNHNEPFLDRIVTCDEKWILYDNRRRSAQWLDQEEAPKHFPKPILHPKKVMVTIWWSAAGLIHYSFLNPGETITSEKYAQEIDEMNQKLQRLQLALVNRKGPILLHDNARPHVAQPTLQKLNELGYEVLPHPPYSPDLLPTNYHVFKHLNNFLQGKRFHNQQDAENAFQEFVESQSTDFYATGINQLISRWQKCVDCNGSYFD

[2] = target: T2, Mos1 transposase D284N (UniProt Q7JQ07 1-345, D284N); settings: protein: recombinant; tags: His6-SUMO cleaved by Ulp1; label: 5' rhodamine; single strand
T2 sequence: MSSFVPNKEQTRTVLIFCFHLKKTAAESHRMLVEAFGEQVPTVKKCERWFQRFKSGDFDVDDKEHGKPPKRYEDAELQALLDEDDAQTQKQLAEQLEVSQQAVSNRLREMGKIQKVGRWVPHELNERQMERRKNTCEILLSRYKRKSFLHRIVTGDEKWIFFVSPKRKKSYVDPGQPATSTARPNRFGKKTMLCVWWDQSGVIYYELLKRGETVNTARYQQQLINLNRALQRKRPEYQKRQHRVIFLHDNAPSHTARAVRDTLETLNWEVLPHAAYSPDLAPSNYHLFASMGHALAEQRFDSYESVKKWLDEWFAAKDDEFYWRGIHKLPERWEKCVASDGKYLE

[3] = target: T3, Metnase DNA-binding domain WT (UniProt Q53H47 342-453); settings: protein: recombinant, tags: His6-SUMO cleaved by Ulp1
T3 sequence: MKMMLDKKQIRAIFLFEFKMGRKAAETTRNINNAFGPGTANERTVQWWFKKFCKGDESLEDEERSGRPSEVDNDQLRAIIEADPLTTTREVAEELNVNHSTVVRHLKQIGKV

[4] = target: T4, Metnase transposase domain N610E (UniProt Q53H47 342-684, N623E); settings: protein: recombinant; tags: His6-SUMO cleaved by Ulp1; label: 5' rhodamine; single strand
T4 sequence: T1 sequence with N282E

[5] = target: T5, Metnase catalytic domain WT (UniProt Q53H47 446-684); settings: protein: recombinant, tags: N-terminal His tag removed by thrombin
T5 sequence: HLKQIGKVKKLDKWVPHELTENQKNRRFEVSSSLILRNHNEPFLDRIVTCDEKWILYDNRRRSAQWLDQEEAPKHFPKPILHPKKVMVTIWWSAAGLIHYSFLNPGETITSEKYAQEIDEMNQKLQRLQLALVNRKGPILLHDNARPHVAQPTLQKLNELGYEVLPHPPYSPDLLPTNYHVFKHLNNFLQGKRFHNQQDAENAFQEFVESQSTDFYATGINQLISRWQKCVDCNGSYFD

[6] = target: T6, Metnase transposase domain N610D (UniProt Q53H47 342-684, N623D); settings: protein: recombinant; tags: His6-SUMO cleaved by Ulp1; label: 5' rhodamine; single strand
T6 sequence: T1 sequence with N282D

[7] = target: T7, Mos1 transposase WT (UniProt Q7JQ07 1-345); settings: protein: recombinant; tags: His6-SUMO cleaved by Ulp1; label: 5' rhodamine; single strand
T7 sequence: T2 sequence with N284D

[8] = label: 5' rhodamine, single strand
[9] = label: 5' rhodamine on strand 1, blunt

B1: 25/31-mer TIR partial duplex (dsDNA)
DNA 1: AACCGCAATTACTTTTGCACCAACC
DNA 2: TCAGTAGGTTGGTGCAAAAGTAATTGCGGTT
modifications: 5' C6-amino linker on strand 1
B1 was tested. Which Kd ([1]; chain copies: 2, label: 5' rhodamine on strand 1, 5' overhang 6 nt on strand 2) did it give?
The Kd was 11.9 ± 2.5 nM.

B2: 25-nt TIR ssDNA (ssDNA)
DNA: AACCGCAATTACTTTTGCACCAACC
modifications: 5' C6-amino linker
How did the Kd [2] turn out when B2 was run?
Its Kd is 33 ± 12 nM.

What about the Kd [1, 8] of the same binder?
Its Kd is 277 ± 26 nM.

Does B2 bind [3, 8]?
Result: no binding

And the Kd [4]?
The Kd was 3200 ± 400 nM.

And the Kd [5, 8]?
The Kd was 295 ± 47 nM.

What about the Kd [6] of the same binder?
The Kd was 3300 ± 1100 nM.

What about the Kd [7] of the same binder?
The Kd was 33 ± 9 nM.

B3: 28-bp blunt TIR dsDNA (dsDNA)
DNA 1: AACCGCAATTACTTTTGCACCAACCTAA
DNA 2: TTAGGTTGGTGCAAAAGTAATTGCGGTT
modifications: 5' C6-amino linker on strand 1
For B3, which Kd ([1]; chain copies: 2, label: 5' rhodamine on strand 1, blunt) is on record?
Its Kd is 7.9 ± 1.9 nM.

And the Kd [3, 9]?
The Kd was 3.2 ± 0.9 nM.

And the Kd [5, 9]?
Its Kd is 4700 ± 800 nM.
